Data taken from publication PMC8228355, “SERS-Based Aptasensor for Rapid Quantitative Detection of SARS-CoV-2”.

B1: Biotin-RBD-1C (structured_DNA)
DNA: CAGCACCGACCTTGTGCTTTGGGAGTGCTGGTCCAAGGGCGTTAATGGACA

Molecular target: RBD of SARS-CoV-2 spike protein (SARS-CoV-2, UniProt P0DTC2 319-541)
Experiment: BLI; ka ([…]; kd ([…]; RBD 80-1200 nM; […]; BLI on streptavidin sensors, buffer and temperature not stated; […]
Conditions: protein: commercial; label: 5'-biotin

Binder	Kd [nM]
B1	13
TTTGGGAGTGCTGGTCCAAGGGCGTTAATGGACA (structured_DNA) [Biotin-RBD-1C-sh]	330
